Data set [1] in a line: Fluorescence emission response to ligand binding. To be noted: glucose titration; Nanodrop3300; room temperature. Also noted: key to Response Intensity^c: +, increases in response to ligand; —: decreases; 0, no change in the glucose titration; key to Response Shape^b: m, monochromatic; d, dichromatic (i.e. spectral shape changes); 0, no change in the glucose titration. The procedure:
(§1) The titration series were mixed with GGBP183C⋅acrylodan or BD_SM4⋅acrylodan conjugates in 384-well microtiter plates. The temperature dependence of the titrations was measured in a real-time PCR machine (Roche LightCycler 480) by determining the ratio of fluorescence emission intensities at 488, 510, and 580 nm (excitation at 440 nm) as a function of temperature (290-370K). Temperatures were advanced in 1K steps. At each temperature data was collected for at 1-second intervals for 60 seconds at which point the signal had relaxed to a steady value associated with the new temperature. Collection times were adjusted to minimize photobleaching (which was not detectable under these experimental conditions). Data reduction software was developed to convert these observations into time-independent datasets that record fluorescence as a function of temperature for each well and associate wells with their concentration of titrant and additive. Management tools were developed to maintain a database of titrations and their analyses.
(§2) In addition to the Roche LightCycler, which has a limited choice of emission wavelengths, data for selected mutants also was measured at room temperature on a Nanodrop3300 (Thermo Scientific) fluorimeter, which records full emission spectra. Emission intensities at a particular wavelength were extracted by integration of the spectral emission intensities over a 20-nm interval centered on that wavelength.

A short description of data set [2]: Galactose titration at room temperature on Nanodrop3300 fluorimeter. To be noted: ^e noisy data. The class given is binding. The procedure: as §2
(§3) Signals S (either single-wavelength emission intensities, LT, or ratios of intensities at two wavelengths, Rig) were fit to ligand-binding isotherms:
(§4) where [L] is the ligand concentration and Kd the dissociation constant corresponding to ^appKd or ^trueKd for fits to R12 (weighted by the relative contributions of ^satβ at the two different wavelengths) and Iλ respectively. For a given isothermal titration, values for ^appKd and ^true Kd were obtained using a non-linear fitting algorithm in which these two parameters were simultaneously fit to the three experimental binding isotherms using equations 29 and 30, with the two monochromatic isotherms sharing the same ^trueKd value. Three separate pairs of ^apoβ and ^satβ were fit in this procedure.

A short description of data set [3]: Thermal denaturation followed by fluorescence ratio, two-state fit. The class given is physicochemical. To be noted: thermal stability of the 183C acrylodan conjugate mutant. The procedure: as §1
Fits of these equation systems to experimental observations such as shown in FIG. 5 require good initial estimates of the parameters. These can then be refined using multi-dimensional conjugate gradient methods. To obtain local fits for protein thermostability in the absence of ligand we solve
This gives excellent fits (FIG. 7).

Data set [4] is described as follows: Glucose titration at room temperature on Nanodrop3300 fluorimeter. The class given is binding. The procedure:
as §2, §3, §4

A short description of data set [5]: Isothermal glucose titrations from fluorescent landscapes (Roche LightCycler). The class given is binding. The procedure: as §1
The response of acrylodan to glucose binding was separated from the effects of thermal denaturation by extracting binding isotherms within the temperature range where the apo-protein remains >99% folded (T<320 K; FIG. 7). Within this temperature range, binding isotherms were constructed by extracting fluorescence values across different wells, each containing different glucose concentrations, at a given temperature, and fit individually with high accuracy to isotherms (FIG. 8):
using linear baselines which vary individually in accordance with the tilt of the S, S1, and S2 baseplanes that correspond the saturated glucose complex. The individually fit Kd(T) values were converted into ΔGb(T) and fit to the Gibbs-Helmholtz equation 9 (FIG. 9).
Analysis of mutant affinity values: Isothermal glucose titrations were extracted from the fluorescent landscape or emission datasets as described above. Monochromatic emission intensities Iλ. (these intensities correspond to a bandpass intensity recorded with a physical filter in the case of the Roche LightCycler) were fit to
where ^apoIλ2 ^apoIλ2 and ^satIλ2^satIλ2 are the emission intensities of the monochromatic signal at wavelength λ2λ2 of the ligand-free and ligand-bound protein, respectively. Equation 28 illustrates that the ^appKd ^appKd values obtained by fits of 25 to ratiometric signals are wavelength dependent. To obtain wavelength-independent values needed for comparison of mutant proteins, it is necessary to simultaneously fit ^appKd ^appKd to the ratiometric signal and ^trueKd ^trueKd to the two monochromatic signals. For a given isothermal titration, values for ^appKd ^appKd and ^trueKd ^trueKd were obtained using a non-linear fitting algorithm in which these two parameters were simultaneously fit to the three experimental binding isotherms using equations 23 and 27, with the two monochromatic isotherms sharing the same ^trueKd ^trueKd value. Three separate pairs of linear ^apoβ ^apoβ and ^satβ ^satβ baselines were fit in this procedure. TABLES 1-5 record the ^trueKd ^trueKd values at 25° C., obtained by analysis of Roche LightCycler data in 488 nm and 510 nm channels. The uncertainty of the fit (‘error’) was obtained using a boot-strapping technique in which 37% of the data was replicated. In all cases, no binding was recorded if one of ^appKd ^appKd or ^trueKd ^trueKd exceeded 200 mM. The glucose constant of GGBP183 C-acrylodan is 4.21±0.08 mM at 25° C.

Experiment in data set [6]: as above
The data set is classed as binding. The note with it: 37° C.; mutations in GGBP183C⋅acrylodan; read-out: glucose Kd values at 37° C.

Where [7] appears, read: apparent, ratiometric signal at the listed wavelength pair, read-out: Affinities (mM)^d Galactose ^appKd.
The mark [8] stands for this setting: from monochromatic signals, read-out: Affinities (mM)^d Galactose ^trueKd.
Where [9] appears, read: apparent, ratiometric signal at the listed wavelength pair, read-out: Affinities (mM)^d Glucose aPPKa.
Where [10] appears, read: from monochromatic signals, read-out: Affinities (mM)^d Glucose trueKa.
[11] abbreviates: 25° C., read-out: glucose affinities.

On to “A155F: GGBP 183C acrylodan conjugate with mutation A155F”, for which, in data set [1], the “Response Intensity^c” value is on record as “—”. Moreover, in data set [1], the “Response Shape^b” value is on record as “m”. Moreover, the Kd in data set [2] (setting [7]) is 0.82 mM; in data set [2] (setting [8]) it was 0.93 mM; in data set [4] (setting [9]), 0.06 mM; in data set [4] (setting [10]) it was 0.06 mM. In addition, the Tm/K in data set [3] is listed as 321 K.

For “A155K: GGBP 183C acrylodan conjugate with mutation A155K”, the Tm/K in data set [3] is 318 K. The same measure, in the same setting: then “A155L: GGBP 183C acrylodan conjugate with mutation A155L”, with 320 K. Consider “A155M: GGBP 183C acrylodan conjugate with mutation A155M”, for which the “Response Intensity^c” value in data set [1] is recorded as “—”. Besides, the “Response Shape^b” value in data set [1] is “m”. Further, the Kd in data set [2] (setting [7]) was found to be 6.7 mM; in data set [2] (setting [8]) it was 8.7 mM; in data set [4] (setting [9]), 0.05 mM; in data set [4] (setting [10]), 0.05 mM. The Tm/K in data set [3] was 321 K.

For “A155Q: GGBP 183C acrylodan conjugate with mutation A155Q”, in data set [3], the Tm/K worked out at 321 K. “A155S: GGBP 183C acrylodan conjugate with mutation A155S”: in data set [1], the “Response Intensity^c” value is on record as “—” and the “Response Shape^b” value was “m?”. Also, the Tm/K in data set [3] was found to be 321 K. The Kd in data set [4] (setting [9]) worked out at 0.31 mM. Further, the Kd in data set [4] (setting [10]) turned out to be 0.35 mM.

For the substance “A155W: GGBP 183C acrylodan conjugate with mutation A155W”, the Tm/K in data set [3] worked out at 322 K.

As to “A155Y: GGBP 183C acrylodan conjugate with mutation A155Y”, the Tm/K in data set [3] was determined as 321 K. Same read-out and setting: then “D14E: GGBP 183C acrylodan conjugate with mutation D14E”, with 318 K; and “D14H: GGBP 183C acrylodan conjugate with mutation D14H”, with 317 K; and “D14L: GGBP 183C acrylodan conjugate with mutation D14L”, with 311 K. Same read-out and setting: then “D14N: GGBP 183C acrylodan conjugate with mutation D14N”, with 317 K. Same read-out and setting: then “D14T: GGBP 183C acrylodan conjugate with mutation D14T”, with 316 K. With “D154A: GGBP 183C acrylodan conjugate with mutation D154A”, the Tm/K in data set [3] was 320 K. The same measure, in the same setting: then “D154N: GGBP 183C acrylodan conjugate with mutation D154N”, with 318 K; and “D236A: GGBP 183C acrylodan conjugate with mutation D236A”, with 320 K. The same measure, in the same setting: then “D236N: GGBP 183C acrylodan conjugate with mutation D236N”, with 320 K; and “F16A: GGBP 183C acrylodan conjugate with mutation F16A”, with 319 K. Same read-out and setting: the figure for “F16L: GGBP 183C acrylodan conjugate with mutation F16L” is 321 K.

Regarding “GGBP16C-acrylodan: F16C mutant of E. coli GGBP, acrylodan conjugate”, the Kd in data set [5] (setting [11]) was around 0.2 mM. “GGBP16C-badan: F16C mutant of E. coli GGBP, badan conjugate”: the Kd in data set [5] (setting [11]) is around 0.2 mM. For “H152A: GGBP 183C acrylodan conjugate with mutation H152A”, the Tm/K in data set [3] was 316 K. On to “H152F: GGBP 183C acrylodan conjugate with mutation H152F”, for which the Kd in data set [5] (trueKd at 25° C., 183C acrylodan conjugates, LightCycler 488 nm and 510 nm channels, ± = bootstrap uncertainty of fit, read-out: Kd^298K(glucose)/mM) is 21.1 ± 0.9 mM; in data set [6] it was around 17000 µM; in data set [4] (setting [9]), 15 mM; in data set [4] (setting [10]), 16 mM. The “Response Intensity^c” value in data set [1] is on record as “—”. Besides, in data set [1], the “Response Shape^b” value is reported as “d”. Further, in data set [3], the Tm/K is on record as 321 K. Consider “H152K: GGBP 183C acrylodan conjugate with mutation H152K”, for which the Tm/K in data set [3] amounted to 319 K. For the substance “K92A: GGBP 183C acrylodan conjugate with mutation K92A”, in data set [3], the Tm/K is 323 K. Still for that read-out and setting: the figure for “M182W: GGBP 183C acrylodan conjugate with mutation M182W” is 322 K; for “N91A: GGBP 183C acrylodan conjugate with mutation N91A” it is 326 K; for “N211A: GGBP 183C acrylodan conjugate with mutation N211A” it is 317 K.

With “N211F: GGBP 183C acrylodan conjugate with mutation N211F”, the Tm/K in data set [3] is on record as 323 K. For “N211H: GGBP 183C acrylodan conjugate with mutation N211H”, the Tm/K in data set [3] amounted to 320 K. Same read-out and setting: the figure for “N211K: GGBP 183C acrylodan conjugate with mutation N211K” is 315 K; for “N211M: GGBP 183C acrylodan conjugate with mutation N211M” it is 317 K.

For “N211Q: GGBP 183C acrylodan conjugate with mutation N211Q”, in data set [1], the “Response Intensity^c” value is reported as “—” and the “Response Shape^b” value was “d”. The Tm/K in data set [3] was determined as 317 K. Further, the Kd in data set [4] (setting [9]) worked out at 29 mM. In addition, the Kd in data set [4] (setting [10]) was 22 mM. Turning to “N211S: GGBP 183C acrylodan conjugate with mutation N211S”, the Tm/K in data set [3] is on record as 319 K. On the same count and under the same terms, then “N211W: GGBP 183C acrylodan conjugate with mutation N211W”, with 328 K.

Consider “N211Y: GGBP 183C acrylodan conjugate with mutation N211Y”, for which the Tm/K in data set [3] was determined as 316 K.

Consider “N256A: GGBP 183C acrylodan conjugate with mutation N256A”, for which, in data set [3], the Tm/K amounted to 324 K.

As to “N256D: GGBP 183C acrylodan conjugate with mutation N256D”, the Tm/K in data set [3] was 321 K. On the same count and under the same terms, the figure for “R158A: GGBP 183C acrylodan conjugate with mutation R158A” is 322 K. The same measure, in the same setting: the figure for “R158K: GGBP 183C acrylodan conjugate with mutation R158K” is 318 K; for “Y10A: GGBP 183C acrylodan conjugate with mutation Y10A” it is 326 K.

(Values after patent US20220411847A1, “GLUCOSE/GALACTOSE BIOSENSORS AND METHODS OF USING SAME” (Duke University, priority 2015, published 2022).)
